Experimental data reported in the nanobody polyreactivity screen of Harvey et al. (2022).

Experiment: yeast display, Sf9 membrane polyspecificity reagent, FACS + sequencing; frameworks hold sequencing errors
How it was run: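 After 36–48 hours of galactose induction, yeast (Saccharomyces cerevisiae BJ5465) displaying a synthetic nanobody library were stained at 4 °C for 1 hour with 10% biotinylated, detergent-solubilized Sf9 membrane reagent. Streptavidin microbeads enriched the stained cells before FACS sorting into low and high (top ~1%) gates on anti-HA and streptavidin fluorescence. Each clone's polyreactivity label reflects its gate of origin.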
In the case of “QVQLVESGGGLVQAGASLRLSCAASGRTFGGYAMGWYRQAPGKERQLVAAISSSGTGTSYADSVKGRFTISRDNAKNTVYFEMNSLKPEDTAVYYCAARSSRTVLSIQDDDYWGQGTQVTVSS”, the “polyreactivity (PSR sort gate)” value is reported as “low polyreactivity”. For “QVQLVESGGGLVQAGASLRLSCAASGRTFYRYAMGWYRQAPGKEREFVAAISNGGSNTRYADSVKGRFTISRDTAKNNVYFQMNSLKPEETAVYYCAARAYQHYNWGQGTQVTVSS”, the “polyreactivity (PSR sort gate)” value was “high polyreactivity”. In the case of “QVQLVESGGGLVQAGASLRLSCAASGSIFGGYAMGWYRQAPGKERELVAAISRSGRTNYADSVKGRFTISRDNAKNTVYLQMNSLKPEDTAVYYCAVDKRYGRVVGRDYDYWGQGTQVTVSS”, the “polyreactivity (PSR sort gate)” value is reported as “high polyreactivity”. In the case of “QVQLVESGGGLVQAGASLRLSCAASGSISKSYAMGWYRQAPGKERELVAAISWRGGSTYADSVKGRFTISRDNAKNTVYLQMNSLKPEDTAVYYCAATNYGTFWGGQSERYDYWGQGTQLTVSS”, the “polyreactivity (PSR sort gate)” value is reported as “low polyreactivity”. For “QVQLVESGGGLVQAGASLRLSCAASGSNSKSYAMGWYRPAPGKERELVAAISWRGGSTYADSVKGRFTNSRDNAKNTVYFQMNSQKPVDTAVYYWAATNYGTFWGGQSERYDYWGQGTQVTVSS”, the “polyreactivity (PSR sort gate)” value was “low polyreactivity”. With “QVQLVESGGGLVQAGASLRLSCAASGSTFDRNVMGWYRQAPGKERELVAAISRVSSTNYADSVKGRFTISRDNAKNTVYLQMNSLKPEDTAVYYCAADRAGSIMNYWGQGTQVTVSS” the “polyreactivity (PSR sort gate)” value was “low polyreactivity”. In the case of “QVQLVESGGGLVQAGASLRLSCAASGSTFGSYTMGWYRQAPWKERELVAAINWTGGNTYYADSVKGRFTISRDYAKNTVYLQMNSLKPEDTAVYYCAAAFYIYGVEGDYWGQGTQVTVSS”, the “polyreactivity (PSR sort gate)” value is reported as “low polyreactivity”. For “QVQLVESGGGLVQAGASLRLSCAASGSTFKYYTMGWYRQAPGKERELVAAISFSGARTYYADSVKGRFTISRDNAKNTVYLQMNSLKPEDTAVYYCAKDRQYYYWGQGTQVTVSS”, the “polyreactivity (PSR sort gate)” value was “high polyreactivity”. In the case of “QVQLVESGGGLVQAGASLRLSCAASGYIYPKYGMGWYIQAPGKERELVAAITGSGGSTYYADSVMGRITISRDNAKNTVYLHMNSLKPEDTAVYYCAKRSWIEYDYWGQGTQVTVSS”, the “polyreactivity (PSR sort gate)” value is reported as “low polyreactivity”. In the case of “QVQLVESGGGLVQAGASLRLSCAASVIIFKIYAMGWYRQAPGKERELVAAITRSGTRTYYADSVKGRFTISRDNAKNTVYLQMNSLKPEDTAVYYCNAYTTLAYDLDYWGQGTQVTVSS”, the “polyreactivity (PSR sort gate)” value is reported as “high polyreactivity”. For “QVQLVESGGGLVQAGASLSLSCAASGRTFGGNAMGWYRQAPGKEREFVAAISRSGTSTYYADSVKGRFTISRDNAKNTVYFQMNSLKPEATAVYYCAALNYLKFAHKYDYWGQGTQVTVSS”, the “polyreactivity (PSR sort gate)” value was “low polyreactivity”. In the case of “QVQLVESGGGLVQAGCILRLSCASSGIIFSYAMGWYRQAPGKESELVAAISGRDGSTYYADSVKGRFTISRDNAKNTVYLQMNSLKPEDTAVYYCAKRISYLPVEMDYWGHGTQVTVSS”, the “polyreactivity (PSR sort gate)” value is reported as “low polyreactivity”. In the case of “QVQLVESGGGLVQAGCRLRLSCAASGRTFFPYAMGWYRQAPGKERELVAAITTGDITNYADSVKGRFTISRDNAKNTVYLQMNSLKPEDTAVYYCAARGYASWSYGGYPLKLDYWGQGTQVTVSS”, the “polyreactivity (PSR sort gate)” value is reported as “low polyreactivity”. With “QVQLVESGGGLVQAGCSLRISCADSGRTFDEYAMGWYRQAPGKERELVAAISGSAGSTYYADSVKGRFTISRDNAKNSVYLQMNSLKPEDTAVYYCNAEVYGELYYWGQGTQVTVSS” the “polyreactivity (PSR sort gate)” value was “low polyreactivity”. For “QVQLVESGGGLVQAGCSLRLICAASGIIFRRYAMGWYRQAPGKERELVAAISSSGGSTYYADSVKGRFTISRDNAKNTVYLQMNSLKPEDTAVYYCNAVTSVQARPRNYYYWGQGTQVTVSS”, the “polyreactivity (PSR sort gate)” value was “high polyreactivity”. With “QVQLVESGGGLVQAGCSLRLICAASGYIFVIYAMGWNRQAPGKERELVAAISSSGAGTYYADSVKGRFTISRDNAKNTVYLQMNSLKPEDTAVYYCAASESAVFDGYDYWGQGTQVTVSS” the “polyreactivity (PSR sort gate)” value was “high polyreactivity”. With “QVQLVESGGGLVQAGCSLRLIFAASGSIFIGYAMGWYRQAPGKERELVATITNGGSTYYADSVKGRFTISRDNAKNTVYLQMNSLKPEDSAVYYCNKPTYQWGQGTQVTVSS” the “polyreactivity (PSR sort gate)” value was “high polyreactivity”. With “QVQLVESGGGLVQAGCSLRLSCAASGFIFTTYAMGWYRQEPGKERELVAAISGRGGTTYYADSVKGRFTISLDTAKNTVYLQMNSLKPEDTAVYYCAADGYPGDDYWGQGTQVTVSS” the “polyreactivity (PSR sort gate)” value was “high polyreactivity”. For “QVQLVESGGGLVQAGCSLRLSCAASGFIFYWYAMVWKRQAPGKERELVAAISYDTGSTYYADSVKGRFTISRDKAKNSVYLPMNSLKPEDTAVYYCAADVYYKYYYWGQGSQVTVSS”, the “polyreactivity (PSR sort gate)” value was “high polyreactivity”. With “QVQLVESGGGLVQAGCSLRLSCAASGFTFLNNAMGWSRQAPGKEREMVAAISQSGTSTYYADSVKGRFTISRDNAKNTVYLQMNSLKPEDTAVYYCAAEDTYPHDYSGGLEYDYWGQGTQVTVSS” the “polyreactivity (PSR sort gate)” value was “low polyreactivity”. With “QVQLVESGGGLVQAGCSLRLSCAASGFTFQHNAMGWYRQAPGKERELVAAISRGGSTNYADSVKGRFTISRDNAKNTVYLQMNSLKPEDTAVYYCAAYDWRVLWGYDYWGQGTQVTVSS” the “polyreactivity (PSR sort gate)” value was “low polyreactivity”. For “QVQLVESGGGLVQAGCSLRLSCAASGGIFSAYVMGWYRQAPGKERELVAAITRRGGATYYADSVKGRFTISRDNAKNTVYLQMNSLKPEDTAVYYCAADDQYYTEYYYWGQGTQVTVSS”, the “polyreactivity (PSR sort gate)” value was “high polyreactivity”. In the case of “QVQLVESGGGLVQAGCSLRLSCAASGIIFRSYAMGWYRQAPGKERELVAAITRSGGSTYADSVKGRFTISRDNAKNTVYLQMNSLKPEDTAVYYCAADRYSGWDYRRDYWGHGTQVTVSS”, the “polyreactivity (PSR sort gate)” value is reported as “low polyreactivity”. In the case of “QVQLVESGGGLVQAGCSLRLSCAASGITFANYAMGWYRPAPGKVRELVAAINWSGGITYADSVKGRFTISRDNAKNTVYLQMHSLKPEDTAVYYCNPYYPDYAKYDYWGQGTQVTVSS”, the “polyreactivity (PSR sort gate)” value is reported as “low polyreactivity”. In the case of “QVQLVESGGGLVQAGCSLRLSCAASGITFNFYAMGWYRQAPGKERELVAAITSSGASTNYADSVKGRFTISRDNAKNTVYLQMNSLYPEDTAVYYCNAQRSRHSLYPVNELYYWGQGTQVTVTS”, the “polyreactivity (PSR sort gate)” value is reported as “low polyreactivity”. In the case of “QVQLVESGGGLVQAGCSLRLSCAASGLIFYTYAMGWYRQAPGKEREFVAAISRRGGSTYYADSVKGRFTISRDNAKNTVYLQMNSLKPEYTAVYYCNARYTYPRPYEEYYYWGQGTQVTVSS”, the “polyreactivity (PSR sort gate)” value is reported as “high polyreactivity”. With “QVQLVESGGGLVQAGCSLRLSCAASGLTFYHYTMGWYRQEPGKERDLVAAISRRGGYTYYADSVKGRFTISRDNAKNTVYLQMNSLKPEDTAVYYCAARALRYSRDFDYWGQGTQVTVSS” the “polyreactivity (PSR sort gate)” value was “high polyreactivity”. For “QVQLVESGGGLVQAGCSLRLSCAASGNSFPSYAMGWYRQAPGKARELVAAITTGGRTYYADSVKGRFTISRDNAKNTVYLQMNSLNPEDTAVYYCAADWGVRYPWYRYYYWGQATQVTVSS”, the “polyreactivity (PSR sort gate)” value was “high polyreactivity”. With “QVQLVESGGGLVQAGCSLRLSCAASGRIFDNYVMGWYRQAPGQERELVAAISSGGGTYYADSVTGRFTISRDNAKNTVYLQMNSLKPEDTAVYYCAKRRVYDRSFGRYDYWGQGTQVTVSS” the “polyreactivity (PSR sort gate)” value was “low polyreactivity”. With “QVQLVESGGGLVQAGCSLRLSCAASGRIFGGYAMGWYRQAPGKERELVAAISSGGNTKYADSVKGRFTISRDNAKNTVYLQMNSLKPEDSAVYYCAAKFAQPDYRYDYWGQGTQVSVSS” the “polyreactivity (PSR sort gate)” value was “high polyreactivity”. With “QVQLVESGGGLVQAGCSLRLSCAASGRIFRYYAMGWYRQAPGKERELVAAISWSGGSTYYADSVKGRFTISRDNAKNTVYLQMNSLKPEYTAVYYCAARYSLKGGRYDYWGQGTQVTVSS” the “polyreactivity (PSR sort gate)” value was “high polyreactivity”. In the case of “QVQLVESGGGLVQAGCSLRLSCAASGRIFYRNAMGWYRQAPGKERELVAGITRGGSTNYADSVKGRFTISRDNAKNNVYLQLNSLKPEDTAVYYCAKAIPAKFYSEAGYDYWGQGTQVTVSS”, the “polyreactivity (PSR sort gate)” value is reported as “low polyreactivity”. In the case of “QVQLVESGGGLVQAGCSLRLSCAASGRIFYYYAMGWYRQAPGKERELVADITWSGGSTYYADSVKGRFTISRDNAKNTVYLQMNSLKPEDTAVYYCNAVYFNYLLEYDYWGQGTQVTVSS”, the “polyreactivity (PSR sort gate)” value is reported as “high polyreactivity”. In the case of “QVQLVESGGGLVQAGCSLRLSCAASGRTDFYTMGWYRQAPGKEMELVAAITSTGRTYYADSVKGRFTISRDNAKNTVYLKMNSLKPEDTAVYFCAAVWRYKGLLLPSYYYWGQGTQVTVSS”, the “polyreactivity (PSR sort gate)” value is reported as “high polyreactivity”. For “QVQLVESGGGLVQAGCSLRLSCAASGRTIAYNAMGWYRQAPGKERELVAAISWSGGSTYYADSVKGRFTISRDNAKNTVYLQMNSMKPEDSAVYYCAKRFGQYRYPYDYWGQGNQVTVSS”, the “polyreactivity (PSR sort gate)” value was “high polyreactivity”. In the case of “QVQLVESGGGLVQAGCSLRLSCAASGSIFAYYDMGWYRQAPGKERELVAAITTRDDDTYYADSVKGRFTISRDNAKNTVYLLLNSLKPEDTAVYYCAAAWWDYGNGKYDYWGQGTQVTVSS”, the “polyreactivity (PSR sort gate)” value is reported as “low polyreactivity”. With “QVQLVESGGGLVQAGCSLRLSCAASGSIFGYNDMGWNRQAPGKERELVATITWGGGRTRYADSVKGRFTISRDNAKNTVYLQINCLKPEDIAVYYCAADKRSYSYVRPPRNHEDYWGQGSQVTVSS” the “polyreactivity (PSR sort gate)” value was “low polyreactivity”. In the case of “QVQLVESGGGLVQAGCSLRLSCAASGSIFSSYAMGWYRQAPGKERELVAAITGSGGSTDYADSVKGRFTISRDNAKNTVYLQMNSLKPEDTAVYYCAARPFWPGNSYYYRYYYWGQGTQVTVSS”, the “polyreactivity (PSR sort gate)” value is reported as “low polyreactivity”. In the case of “QVQLVESGGGLVQAGCSLRLSCAASGSNFEENAMGWYRQAPGKESELVAAITIGGRTNYADSVKGRFTISRDNAKNTVYLQMNSLKPEDTAVYYCAADLSSNKYWRFWTRYYYWGQGTQVTVSS”, the “polyreactivity (PSR sort gate)” value is reported as “low polyreactivity”. For “QVQLVESGGGLVQAGCSLRLSCAASGSTFSYIAMGWYRQAPGKERELVAAITSGSSTNYADSVKGRFTISRDNAKYTVYLQMNSLKPEDTAVSYCAADGYQDKYYWLETWVGYWGHGTQVTVSS”, the “polyreactivity (PSR sort gate)” value was “low polyreactivity”. In the case of “QVQLVESGGGLVQAGCSLRLSCAASGSTIYTYTMGWYRQAPGKERELVAAISSSGGDTYYADSVKGRFTISRDNAKNTVYLQMNSLKPEDTAVYYWDALGAFPSLEFDYWGQGTHVTVSS”, the “polyreactivity (PSR sort gate)” value is reported as “low polyreactivity”. For “QVQLVESGGGLVQAGCSLRLSCAASGSTLFWYDMGWYRQAPGKERELVAAINWTGGSTYADSVKGRFTISRDNAKNTVYLQMNSLKPEDTAVYYCNADEYWASGYDPYDYWGQGTQVTVSS”, the “polyreactivity (PSR sort gate)” value was “low polyreactivity”. For “QVQLVESGGGLVQAGCSLRLSCAASGSTSAYYVMGWNRQAPGKARELVAAIDFSGDSTYYADSVKGRFTISRDNAKNTVYLQMNSLKPEDTAVYYCAAELFYYSSLVTYEYWGQGTQVTVSS”, the “polyreactivity (PSR sort gate)” value was “high polyreactivity”.
